In PMC4165372, “Nutritional status modulates box C/D snoRNP biogenesis by regulated subcellular relocalization of the R2TP complex” (Genome Biology, 2014):

T1: GST-Nop58-447 (S. cerevisiae, UniProt Q12499 1-447)
T1 construct: Cloned in pGEX-6P-1 (BamHI-XhoI); source: E. coli BL21(DE3) pRIL, purified (glutathione Sepharose 4B); not shown: GST, N-terminal, kept
T1 sequence (looked up): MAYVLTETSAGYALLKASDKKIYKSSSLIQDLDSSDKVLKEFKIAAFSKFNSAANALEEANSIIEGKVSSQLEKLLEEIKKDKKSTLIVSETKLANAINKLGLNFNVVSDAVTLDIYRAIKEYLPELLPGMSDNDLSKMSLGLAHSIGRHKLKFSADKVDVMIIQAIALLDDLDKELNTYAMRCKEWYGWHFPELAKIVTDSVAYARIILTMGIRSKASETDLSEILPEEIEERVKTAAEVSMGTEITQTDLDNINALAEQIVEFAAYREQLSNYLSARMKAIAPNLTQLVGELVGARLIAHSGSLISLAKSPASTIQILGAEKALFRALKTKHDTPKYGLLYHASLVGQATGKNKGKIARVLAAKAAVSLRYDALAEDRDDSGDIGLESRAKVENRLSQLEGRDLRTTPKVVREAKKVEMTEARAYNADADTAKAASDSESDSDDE

B1: Pih1(1–230) (domain or fragment, S. cerevisiae, UniProt P38768 1-230, looked up)
chain: MADFLLRPIKQRHRNEDKYVSVDAADGSVSKIEPIADFVIKTKLLSANGPEKLQDGRKVFINVCHSPLVPKPEVDFNARIVFPLIIQNEWEIPIITSCYRMDHDKKGQECYVWDCCINSDCSRWICDDIQLREILVEWCLESCEIRDSVVLCRDRIAFPKMKKKGAELPALEVLNDELHQDYKAKMHKIIEEEAGDPMSILRGRNDDGDDNNDPDDGTLPPLFPIENKIS
notes: Pih1, S. cerevisiae, N-terminal domain, residues 1-230 of 344; also called N-terminal domain of Pih1
B2: GST-Nop58-C (domain or fragment, S. cerevisiae, UniProt Q12499 285-447, looked up)
chain: PNLTQLVGELVGARLIAHSGSLISLAKSPASTIQILGAEKALFRALKTKHDTPKYGLLYHASLVGQATGKNKGKIARVLAAKAAVSLRYDALAEDRDDSGDIGLESRAKVENRLSQLEGRDLRTTPKVVREAKKVEMTEARAYNADADTAKAASDSESDSDDE
notes: also called pGST-Nop58-C; pGEX-Nop58-C; source: E. coli BL21(DE3) pRIL, purified (glutathione Sepharose 4B; MagneGST Glutathione Particles for the reconstitution with Rvb1/2 or R2TP); not shown: GST, N-terminal, kept
B3: full-length Pih1 (natural protein, S. cerevisiae, UniProt P38768 1-344, looked up)
chain: MADFLLRPIKQRHRNEDKYVSVDAADGSVSKIEPIADFVIKTKLLSANGPEKLQDGRKVFINVCHSPLVPKPEVDFNARIVFPLIIQNEWEIPIITSCYRMDHDKKGQECYVWDCCINSDCSRWICDDIQLREILVEWCLESCEIRDSVVLCRDRIAFPKMKKKGAELPALEVLNDELHQDYKAKMHKIIEEEAGDPMSILRGRNDDGDDNNDPDDGTLPPLFPIENKISGAKIEEIDKNEIAHRNLKQAPAPAPAPHEQQEDVPEYEVKMKRFKGAAYKLRILIENKAPNSKPDRFSPSYNFAENILYINGKLSIPLPRDIVVNAADIKIFHIRKERTLYIYI
notes: Pih1, S. cerevisiae, 344 amino acids
B4: GST-Nop58-MC (domain or fragment, S. cerevisiae, UniProt Q12499 158-447, looked up)
chain: KVDVMIIQAIALLDDLDKELNTYAMRCKEWYGWHFPELAKIVTDSVAYARIILTMGIRSKASETDLSEILPEEIEERVKTAAEVSMGTEITQTDLDNINALAEQIVEFAAYREQLSNYLSARMKAIAPNLTQLVGELVGARLIAHSGSLISLAKSPASTIQILGAEKALFRALKTKHDTPKYGLLYHASLVGQATGKNKGKIARVLAAKAAVSLRYDALAEDRDDSGDIGLESRAKVENRLSQLEGRDLRTTPKVVREAKKVEMTEARAYNADADTAKAASDSESDSDDE
notes: Nop58, S. cerevisiae, middle and C-terminal domains (lacks the N-terminal domain and the KKE/D repeat); start worked out from the forward primer NOP58-472-BamHI-F (nucleotide 472 = codon 158); The forward primer adds an ATG before the first Nop58 codon; also called pGST-Nop58-MC; pGEX-Nop58-MC; source: E. coli BL21(DE3) pRIL, purified (glutathione Sepharose 4B); not shown: GST, N-terminal, kept
B5: GST-Nop58-NM (domain or fragment, S. cerevisiae, UniProt Q12499 1-284, looked up)
chain: MAYVLTETSAGYALLKASDKKIYKSSSLIQDLDSSDKVLKEFKIAAFSKFNSAANALEEANSIIEGKVSSQLEKLLEEIKKDKKSTLIVSETKLANAINKLGLNFNVVSDAVTLDIYRAIKEYLPELLPGMSDNDLSKMSLGLAHSIGRHKLKFSADKVDVMIIQAIALLDDLDKELNTYAMRCKEWYGWHFPELAKIVTDSVAYARIILTMGIRSKASETDLSEILPEEIEERVKTAAEVSMGTEITQTDLDNINALAEQIVEFAAYREQLSNYLSARMKAIA
notes: Nop58, S. cerevisiae, N-terminal and middle domains (lacks the C-terminal domain); end worked out from the reverse primer NOP58-852-XhoI-R (nucleotide 852 = codon 284); also called pGST-Nop58-NM; pGEX-Nop58-NM; source: E. coli BL21(DE3) pRIL, purified (glutathione Sepharose 4B); not shown: GST, N-terminal, kept

Experiments:
Conditions in all cases: both partners purified
[1] = target: B4; test: pull-down; GST-Nop58 variants immobilised on glutathione Sepharose 4B, incubated with Pih1 or Pih1(1–230) 40 min at 30°C in GST lysis buffer (1×PBS, 0.1% NP40, 10% glycerol, 1 mM DTT); washes with 0.5 M NaCl; Ponceau S and Western blot
[2] = target: B5; test: as above
[3] = target: T1, GST-Nop58-447; test: as above
[4] = target: T2, R2TP complex (recombinant, preformed) (S. cerevisiae, UniProt Q03940 1-463; Q12464 1-471; P25638 1-111; P38768 1-344); test: pull-down; GST-Nop58-C on MagneGST glutathione particles incubated with 0.1 μM preformed Rvb1/2 or R2TP complex at 4°C for 16 h; washed with buffer H with 0.1 M KCl at 23°C; Western blot
T2 construct: Rvb1, S. cerevisiae; Rvb2, S. cerevisiae, untagged; Tah1, S. cerevisiae; Pih1, S. cerevisiae, untagged; also called preformed R2TP complex purified from E. coli; source: preformed complex purified from E. coli; not shown: His6 (HV-tag, with TEV site), N-terminal, cleaved; copies: + + +
T2 sequence (Q03940 whole entry, chain 1 of 3): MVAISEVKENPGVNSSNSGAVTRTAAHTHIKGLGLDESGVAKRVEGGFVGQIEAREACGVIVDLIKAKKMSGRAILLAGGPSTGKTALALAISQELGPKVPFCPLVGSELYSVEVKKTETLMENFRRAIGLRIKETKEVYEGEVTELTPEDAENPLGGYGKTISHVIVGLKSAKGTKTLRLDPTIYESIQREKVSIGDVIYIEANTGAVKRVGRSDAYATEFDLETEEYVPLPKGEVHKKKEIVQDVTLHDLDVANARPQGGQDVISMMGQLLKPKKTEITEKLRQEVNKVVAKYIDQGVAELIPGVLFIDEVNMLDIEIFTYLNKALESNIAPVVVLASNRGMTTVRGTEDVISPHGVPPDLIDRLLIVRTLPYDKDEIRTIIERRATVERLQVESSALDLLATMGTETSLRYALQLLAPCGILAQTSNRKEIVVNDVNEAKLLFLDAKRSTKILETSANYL
T2 sequence (Q12464 whole entry, chain 2 of 3): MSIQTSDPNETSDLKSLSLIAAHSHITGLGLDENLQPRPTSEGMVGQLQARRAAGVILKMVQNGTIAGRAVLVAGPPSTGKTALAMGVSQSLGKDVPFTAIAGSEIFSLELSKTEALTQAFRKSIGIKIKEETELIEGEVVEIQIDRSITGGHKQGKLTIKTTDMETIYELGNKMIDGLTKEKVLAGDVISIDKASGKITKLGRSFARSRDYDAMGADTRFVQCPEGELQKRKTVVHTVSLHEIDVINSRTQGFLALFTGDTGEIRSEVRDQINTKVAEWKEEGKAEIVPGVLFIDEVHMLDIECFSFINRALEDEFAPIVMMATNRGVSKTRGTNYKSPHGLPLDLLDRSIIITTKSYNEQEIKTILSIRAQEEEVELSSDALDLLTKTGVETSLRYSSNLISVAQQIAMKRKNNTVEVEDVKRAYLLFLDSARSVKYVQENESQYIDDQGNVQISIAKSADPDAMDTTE
T2 sequence (P25638 whole entry, chain 3 of 3): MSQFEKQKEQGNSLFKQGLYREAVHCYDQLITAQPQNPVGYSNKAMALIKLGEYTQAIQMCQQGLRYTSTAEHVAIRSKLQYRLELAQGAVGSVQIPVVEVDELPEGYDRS

[5] = target: T3, Rvb1/Rvb2 complex (S. cerevisiae, UniProt Q03940 1-463; Q12464 1-471); test: as above
T3 construct: Rvb1, S. cerevisiae; Rvb2, S. cerevisiae, untagged; also called Rvb1/2; preformed Rvb1/2; source: E. coli BL21(DE3) pRIL, co-expressed (pCOLADuet-1), purified (Ni-NTA, TEV protease, Superdex 200); not shown: His6 (HV-tag, with TEV site), N-terminal, cleaved
T3 sequence (Q03940 whole entry, chain 1 of 2): as the sequence (Q03940 whole entry, chain 1 of 3) above
T3 sequence (Q12464 whole entry, chain 2 of 2): as the sequence (Q12464 whole entry, chain 2 of 3) above

[6] = target: B3; test: pull-down; GST-Nop58 variants immobilised on glutathione Sepharose 4B, incubated with Pih1 or Pih1(1–230) 40 min at 30°C in GST lysis buffer (1×PBS, 0.1% NP40, 10% glycerol, 1 mM DTT); washes with 0.5 M NaCl; Ponceau S and Western blot
[7] = target: B1; test: as above

| binding result [3] | binding result [6] | Binder | other results |
| --- | --- | --- | --- |
| binds |  | B1 | binding result [1]: binds; binding result [2]: binds |
|  | binds | B2 | binding result [4]: binds; binding result [5]: binds; binding result [7]: binds |
| binds |  | B3 |  |
|  | binds | B4 |  |
|  | binds | B5 |  |
